Reference: IntAct's records for PubMed 19942855

Columns and labels:
spp_human HM13 [1] = target: spp_human HM13 (UniProt Q8TCT9)
spp_human HM13 [2] = target: spp_human HM13 (UniProt Q8TCT9); remark: listed apart in the source

Chain of spp_human HM13 (Q8TCT9 whole entry): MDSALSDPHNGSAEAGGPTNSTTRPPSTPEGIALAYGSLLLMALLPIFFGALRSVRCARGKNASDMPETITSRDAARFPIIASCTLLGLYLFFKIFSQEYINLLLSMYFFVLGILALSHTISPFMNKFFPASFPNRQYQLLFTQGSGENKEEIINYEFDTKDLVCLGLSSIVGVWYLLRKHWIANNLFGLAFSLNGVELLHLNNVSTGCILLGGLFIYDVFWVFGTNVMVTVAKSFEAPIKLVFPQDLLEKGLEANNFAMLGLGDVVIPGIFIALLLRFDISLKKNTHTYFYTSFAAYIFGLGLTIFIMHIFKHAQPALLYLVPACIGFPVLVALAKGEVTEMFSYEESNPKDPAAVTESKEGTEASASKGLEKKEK
Chain of Protein disulfide-isomerase (Homo sapiens), P07237 C400S (P07237 whole entry C400S): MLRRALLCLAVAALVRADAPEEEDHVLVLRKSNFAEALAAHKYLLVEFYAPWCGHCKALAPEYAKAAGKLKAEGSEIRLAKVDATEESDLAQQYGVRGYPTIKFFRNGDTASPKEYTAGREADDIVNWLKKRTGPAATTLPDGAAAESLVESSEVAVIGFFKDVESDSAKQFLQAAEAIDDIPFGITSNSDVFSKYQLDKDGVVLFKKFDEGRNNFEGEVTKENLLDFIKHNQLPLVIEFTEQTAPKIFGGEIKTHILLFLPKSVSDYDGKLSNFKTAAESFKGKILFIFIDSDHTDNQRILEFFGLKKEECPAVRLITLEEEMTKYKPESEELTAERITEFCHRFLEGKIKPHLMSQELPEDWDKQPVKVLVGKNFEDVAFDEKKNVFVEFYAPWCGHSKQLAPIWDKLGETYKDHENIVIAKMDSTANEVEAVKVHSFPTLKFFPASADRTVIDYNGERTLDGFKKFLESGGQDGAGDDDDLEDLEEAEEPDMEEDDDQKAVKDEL
Chain of Protein disulfide-isomerase (Homo sapiens), P07237 C53S (P07237 whole entry C53S): as the sequence (P07237 whole entry C400S) above, with C53S, S400C counted along it
Chain of Protein disulfide-isomerase (Homo sapiens), P07237 C397S (P07237 whole entry C397S): as the sequence (P07237 whole entry C400S) above, with C397S, S400C counted along it
Chain of Protein disulfide-isomerase (Homo sapiens), P07237 F275W (P07237 whole entry F275W): as the sequence (P07237 whole entry C400S) above, with F275W, S400C counted along it
Chain of Protein disulfide-isomerase (Homo sapiens), P07237 I289A (P07237 whole entry I289A): as the sequence (P07237 whole entry C400S) above, with I289A, S400C counted along it
Chain of Protein disulfide-isomerase (Homo sapiens), P07237 C56S (P07237 whole entry C56S): as the sequence (P07237 whole entry C400S) above, with C56S, S400C counted along it

effect of a mutation on the interaction (spp_human HM13 [1]) | effect of a mutation on the interaction (spp_human HM13 [2]) | Substance
increasing interaction |  | Protein disulfide-isomerase (Homo sapiens), P07237 I289A
 | decreasing interaction | Protein disulfide-isomerase (Homo sapiens), P07237 C56S
 | decreasing interaction | Protein disulfide-isomerase (Homo sapiens), P07237 C53S
 | decreasing interaction | Protein disulfide-isomerase (Homo sapiens), P07237 C397S
 | decreasing interaction | Protein disulfide-isomerase (Homo sapiens), P07237 C400S
increasing interaction |  | Protein disulfide-isomerase (Homo sapiens), P07237 F275W
